Data on one compound can be found in article PMC5149022, “A ^99mTc-tricine-HYNIC-labeled Peptide Targeting the Melanocortin-1 Receptor for Melanoma Imaging” (Iranian Journal of Pharmaceutical Research : IJPR, 2016).

Data set [1] in a line: Protein binding by precipitation method. The class given is in vitro ADME. Here is the method:
Protein binding of radiolabeled peptide was measured by precipitationmethod resulting 37%forradioconjugate. Plasma proteins binding could be due to transchelation, which is possible with exchange reactions among co-ligands and the possible action of HYNIC as a mono- or bi-dentated ligand complexing ^99mTc.

Data set [2] can be described thus: Stability of radiolabeled peptide in human serum. The class given is in vitro ADME. To be noted: fresh human serum, 37 °C, RP-HPLC with gamma detector. Here is the method: (§1) The stability of radiolabeled peptide in aqueous solution was evaluated by incubation of the reaction mixture at ambient temperature (25 °C) up to 24 h. Stability in human serum at 37 °C was tested in parallel after adding 100 μL of reaction mixture to 1mL of fresh human serum. The incubation mixtures were sampled at 1,6 and 24 h time points. Serum samples (100–200 μL) were treated with ethanol (200–400 μL) and centrifuged (4000 g, 5 min, 4 °C) to precipitate the serum proteins.20–100 μL aliquots from the supernatant were separated to assess the degradation of ^99mTc labeled peptide by RP-HPLC. 100 μL aliquots from the 25 °C incubated mixture were passed from a 0.22 μ filter to eliminate the probable ^99mTc colloids and then, 5–20 μL of filtrate were analyzed by RP-HPLC as well.

A short description of data set [3]: Stability of radiolabeled peptide in aqueous solution. The class given is physicochemical. Here is the method:
as §1

The test system of data set [4] is B16/F10 tumor (MC1 receptor). Description: Biodistribution in B16/F10 tumor bearing nude mice. The class given is in vivo. To be noted: nude mice with B16/F10 tumor. The method, then: Animal experiments were performed in compliance with the regulations of our institution and with generally accepted guidelines governing such work.Groups of three nude mice were used in each experiment. A suspension of B16/F10 cells (1×10^7) in PBS was subcutaneously injected in the right flank of each nude mice. Seven days after inoculation, the tumors were inducted and then, ^99mTc-tricine-HYNIC-peptide (20 MBq) was injected via a femoral vein. Also a group of three animals were injected with peptide ([…]) in saline (0.9%; […]) as a co-injection with the radiopeptide (blocked animals). After 1, 4 and 24 h, the groups of mice were killed, then the organs of interest were excised, weighed and counted in the gamma counter. The percentage of the injected dose per gram (% ID/g) was calculated for each tissue. At 4 h after injection, accumulation of the tracer in tumor area was also assessed by planar scintigraphy under ether anesthesia.

Bridge positions count the residues as written; N and C are the ends. Square brackets hold non-standard residues; d marks the D form. Peptide text beside a SMILES is read from it. * marks the point of attachment. HYNIC = NNc1ccc(C(=O)*)cn1; Nle = CCCC[C@H](N)C(=O)O; GABA = NCCCC(=O)O

Turning to `CCCC[C@H](NC(=O)CCCNC(=O)c1ccc(NN)nc1)C(=O)N[C@H]1CC(=O)NCCCC[C@@H](C(N)=O)NC(=O)CNC(=O)[C@H](Cc2c[nH]c3ccccc23)NC(=O)[C@H](CCCNC(=N)N)NC(=O)[C@@H](Cc2ccccc2)NC(=O)[C@H](Cc2c[nH]cn2)NC1=O` [^99mTc-tricine-HYNIC-peptide, ^99mTc-tricine-HYNIC-GABANle-CycMSHhept, metal not drawn] ({HYNIC-GABA}-[Nle]DH[dF]RWGK-NH2; lactam 2-8), the protein binding in data set [1] is listed as 37%. Moreover, the “labeling yield remaining after incubation in human serum” value in data set [2] (24 h) came to 75%. Besides, the “stability in human serum (release of 99mTcO4- or peptide degradation)” value in data set [2] (100 μL reaction mixture in 1 mL serum, up to 6 h, ethanol precipitation) is on record as “no significant release of ^99mTcO4^− or peptide degradation”. The “labeling yield remaining after incubation in aqueous solution” value in data set [3] (reaction mixture, ambient temperature (25 °C), 24 h, RP-HPLC with gamma detector) is 75%. Also, the “stability in aqueous solution (release of 99mTcO4- or peptide degradation)” value in data set [3] (reaction mixture, ambient temperature (25 °C), up to 6 h, 0.22 μ filtered, RP-HPLC with gamma detector) is recorded as “no significant release of ^99mTcO4^− or peptide degradation”. The radiochemical stability entry in data set [3] (up to 6 h post labeling) was “excellent radiochemical stability”. Further, the kidneys uptake in data set [4] (20 MBq via femoral vein, 1 h after injection, n = 3) is listed as 7.38 ± 0.56 % ID/g. The tumor uptake in data set [4] (20 MBq via femoral vein, 4 h, n = 3) was determined as 4.51 ± 0.11 % ID/g. In data set [4] (1 h, n = 3), this compound showed a blood uptake of 1.26 ± 0.13 % ID/g, an intestines uptake of 0.65±0.05 % ID/g and a liver uptake of 1.48 ± 0.08 % ID/g. Moreover, the “tumor uptake, blocked group” value in data set [4] (co-injection of cold peptide, time not stated) was 2.33 % ID/g. The liver uptake entry in data set [4] (time not stated) is on record as “lower than 2.0 % ID/g”.
